According to article PMC6093203:
pKd: −log10 of the molar value.

Target: F-ΔC2-WWP2 (UniProt O00308)
Experiment: fluorescence polarisation

pKd: 4.70
Substance: non-phosphorylated PTEN (n-PTEN) (natural protein)
